Source: the DeepSol protein solubility set

test: soluble on expression in E. coli; label from the status in PepcDB or PDB records

| Sequence | soluble on expression in E. coli |
| --- | --- |
| GPGSMMGTDTEKGLYLHAAWDLFERLRPGQQLCVSFFEIYCNSLYDLLNHRHPIVLREDANRRVNICGVTWRTVATVEELWQLVRSGMEQRRTGTTTANEHSSRSHAVLSLRITDSENPDFTGSVNFVDLAGSERAADTAAHDRLTRLEGAEINKSLLALKECIRALDEKKKHVPFRGSRLTEVLRASFTGNSKTVMIAAVSPSSVNHEHTSNTLRYAFRVKGLSVPSVWPSTARNAPRLCLPVARSRSRAAAAVAAANEPTSAPAATECSFNSKHTDDAGSPRRPRHARRRRHAYKTAHEPQDEIGISDTNESCTSDTATESPRPRMQITQKACRHQVGRNSTGSSTSAKRHKTCCLVPYMVESLSQRRTRHRTRKERLPLPRAACSIGESSDLLLANASGTDSKSRALAEVILPHVKGATRHPSSLIAVDVAALEQRLTLQIIAQLRLDLGQQLEEVLMEKDTIISALRSENEKLRQALDKTGNVEQFYGGSPCDGEVQKRPAVLPALLYPSSPSILQEQLSSGVSTASVGDEPPLRVLSE | not soluble |
| MIKDVHRCFVIACIPGKKPYTLALSDFISATAACFKSGIPLKTLKESLENMKETYFRPLKVEEFELLRTWLTLVYKTLKEVLFPLTENKRGICDTDDSIYDEFVKSIVTAIREGYSMEKIRLEQVVTNTKTQPRTEFESALLSQSTRIVVQTVQIAKEFSSEQ | not soluble |
| MSLDPHAPLAERLRPRTLDDVVGQSHLLGPGKPLRLAFDSGKLHSMILWGPPGVGKTTLARLTAQAFGADFIAISAVLSGVKDIREAVERARMNQKLGRATILFVDEVHRFNKSQQDAFLPHVESGLFTFIGATTENPSFEVVGALLSRAQVYVLKSLTPDELGRLMQRALQELPSLKLADGVDKLLAAYADGDARKLLNLLEQLDTAARTAQVEEADAAFVENALAQSLRRFDKGGEAFYDQISALHKSVRGSDPDASLYWLVRMLDGGADPRYLGRRLVRMASEDIGMADPRALRLALDAVETYERLGSPEGELALAEACLYLACAPKSNAAYVAYNAARAFVEANPSNDVPIHLRNAPTKLMKELGYGRAYRYAHDEPEAYAAGERYFPDDIAEQQFYEPTPRGLEGKIAEKLAHLRELDDEAEKEGHHHHHH | soluble |
| MLRLDTRFLPGFPEALSRHGPLLEEARRRLLAKRGEPGSMLGWMDLPEDTETLREVRRYREANPWVEDFVLIGIGGSALGPKALEAAFNESGVRFHYLDHVEPEPILRLLRTLDPRKTLVNAVSKSGSTAETLAGLAVFLKWLKAHLGEDWRRHLVVTTDPKEGPLRAFAEREGLKAFAIPKEVGGRFSALSPVGLLPLAFAGADLDALLMGARKANETALAPLEESLPLKTALLLHLHRHLPVHVFMVYSERLSHLPSWFVQLHDESLGKVDRQGQRVGTTAVPALGPKDQHAQVQLFREGPLDKLLALVIPEAPLEDVEIPEVEGLEAASYLFGKTLFQLLKAEAEATYEALAEAGQRVYALFLPEVSPYAVGWLMQHLMWQTAFLGELWEVNAFDQPGVELGKVLTRKRLAG | soluble |
| MGSDKIHHHHHHMKLNFTGHTDPGLIRSNNQDDYYIDPEGRFFIVADGMGGHAGGEEASRIATREIKAYLTANWDVSKPSSELLEQALWQANEAILQDQQNHPERADMGTTAVVVIFRNDEQWCAHVGDSRLYRLRETQLEQVTEDHTWVARAIKIGDITAEEARVHPFRHVLSRCLGREDLHQVDVQPLDTKIGDRLLLCSDGLTEELPDQKIAHNLQINSLLDQSALSLVEDAKEQGGHDNITVVIVALE | not soluble |
| MGSDKIHHHHHHDLTEEIHSSVIAENYYNNAGEVMAAMMRPWGHFCGTMQVAQSPWSCNELSSDCAAWPQKGRHGYDNGDWIRLHRHQWIPTDGQVVDAWKKLFEGIGYANNFLTDTENIDFEALQVPMSKAQAQAEMRVYRAYCYWYVMDMFGTAPICEKIGEINPSSKSRAELFAWIEKELNESIPSLSESKTETYGRVSKWGAYALLARLYLNAEIYTGQARWDDCIAACDELAKGGFALDKKWNDTFRADNDKRSTEIIWSIVYDEVYAKGMGWYQRWLHYAHQTGWDLQSGPWNGLVTQPTFYDSFADNDLRKIEGFLIGKQYPRKVDENGNYYYDTTAEPLKGSEEYNGQDLVFVNYIKSMTEGEENSGARSIKYEIQPGTTGDMNNDWVMFRYSEVIYNKAEALMRKNGGKATQEVVDMINSVRQRSFKAEDWEKAKYTTATLTMDEFLAEKGREFAFEGIRRTDLVRFNKFVTTSWWDKTASNEPKRNIFPIPQRQLDANANLSPNEANSLF | not soluble |
| MVKQVGNTEIKENHRASCHCGAVVLELYLPNGIEKPRRCDCSICRRKGAIVGSVPLANIKILKGESELKLYQFNTGTAKHYFCSNCGIYTHHQRRSDPTEYGYNIGCLEGVNPYELGAIEVMDGVNHPADRKKILEHHHHHH | not soluble |
| MAPRSYWKGYLKLSLVTCPVTLMPATSEAERVRFRTLNGRTGHPVVSRYLDAETGDVVDDDDQVKGYPRSETEHVILEEEELDAVALESARTIDIDCFVPSDEIAWIWYDRPHYLMPADPIGEEAFAVIREAMRATDRSGVARLVLGGRERAVLLMPRGEGIILWTLRYGDEVRPEEAYFGDLAAGKPDPKALTLVKRLIEERTRTWEPGMVEDPVQENLLELIRSKKPKKRSRKAGAKAPKGGDNVVSIMDALRKSIEGKG | not soluble |
| MSLAKYFDPHIHMVSRTTDDYQNMAAAGITGVIEPAFWQGQARTSVGSFIDYFDTLLGWERFRASMFGIHHFCTIGLNPKEANDLSVANEVLEILPRYLVKDGVVAVGEIGYDDITPEEDRFLAAQLELARQFNLPVLVHTPHRDKIGGTKRTLAVIREVGIAENLVIIDHLNELTLPLVLDSDCWRGHSIYPNTKMSEQRMVALLQEYGSEKMVVNSAADWGISDPLKVPKTGQAMLAAGFSEAQVEQVLFHNPVDFFAQSGQLDKQLVSTEGHHHHHH | not soluble |
| MLRSLSTISKSTVRCMSLTSKMAAEQPSKQEVDDLFAEKPQHHNPEQRRHAYSVNKVELVGGVALDPLYKTGRNGKPYLIFNIITNSYFKQQDGTTLDQTERHAVSVFGKQAEILSKTIKKGSRLMVQGRLHYSGGQKDEQGNRTQRNTYIIAQTVQPLARAARENPDQH | not soluble |
| MSLATYETFAAVYDAVMDDTLYAKWTDFSLRHFPKGKKKLLELACGTGIQSVRFAQAGYAVTGLDLSGDMLKLAKKRATSAHQSIQFIEGNMLDLSNVGKYDLITCYSDSICYMQDEVEVGDVFIEVYKALEENGVFIFDVHSTYQTDKVFPGYSYHENADDFAMVWDTYEDDAPHSIVHELTFFVQEEDGRFTRHDEVHEERTYDILTYDILLEQAGFKDVKVYADFEDKKPTATSARWFFVAHKEGHHHHHH | soluble |
| MGSDKIHHHHHHMTREKSSYAVQTVEKALDILETLTDESRHATLPYLAEKLDLSRNKAFRLLATLESKGLVERDETSGVYRLGISSVELAQRLLNSTSLIRHAHPIMERLARKHDEAVYIAVLKGDEVLFLDMVDCEQAIKTAPLVGRRFPFFSNAAGKAIRALESTDLLDRFLKKRGRNGGPFDPAALQQELKAVREHGVAVDFDGLGEGIVSVAVAVRDYAGKVIGALTMLGPSFRMMASRMENEIIPSLREGAEILSMKFGYAKL | not soluble |
| MKRLLLSAAILSSMALFNVNAQELKTSADMKGSFKKNVVLEVFTAEWCGYCPGGKERIAKAIEMLDDEYKERVFQTFVHYNDGISKKWPRVGQLFIALDQTLGIPGFPTFSVCRMEKKGENLSIGAPIAIKNKIMKGFGDGTAPAEVNLKLTKGATPEDVCTATFTGKVDADLIGKPLMLTAYVLKNNMKPINPQNGAGDGYLHQHTVLMILSTDVKGDALNIAADGSFTIKKEFKLDGFEIKDTDVLAFVHHPMSNAENHSIINAGQESLDKAEPTATEQIVATPSVKAYVQNGKIVVEEEYSKMEVFNATGQLVKNESLVPGVYVVRITANGVMYFLKVLVP | not soluble |
| GSELETAMETLINVFHAHSGKEGDKYKLSKKELKELLQTELSGFLDAQKDADAVDKVMKELDEDGDGEVDFQEYVVLVAALTVACNNFFWENS | soluble |
| NAAQALVNVQTSVIPKTAFAARDFVDYSFPQEQKDKEKRKQQWVKNSHTKNSDVQPFAEFAILEIPLFSKSKVDRKIFNHFIQPAIRTYKQLGDSLNIFANPTLDQLKQNRYYVLGYPFLKNKVSSLFLNQTGKKKGIFRRKYTNIPWKTSYYLN | not soluble |
| SLHAQQKAEQLAEREEMVAELSAAKQQITQSEHWRAECELLNNEVRSLQSINTSLEADLREVTTRMEAAQQHADDKIRQMINSEQRLSEQFENLANRIFEHSNRRVDEQNRQSLNSLLSPLREQLDGFRRQVQDSFGKEAQERHTLTHEIRNLQQLNAQMAQEAINLTRALKGDNKTQGNWGEVVLTRVLEASGLREGYEYETQVSIENDARSRMQPDVIVRLPQGKDVVIDAKMTLVAYERYFNAEDDYTRESALQEHIASVRNHIRLLGRKDYQQLPGLRTLDYVLMFIPVEPAFLLALDRQPELITEALKNNIMLVSPTTLLVALRTIANLWRYEHQSRNAQQIADRASKLYDKMRLFVDDMSAIGQSLDKAQDNYRQAMKKLSSGRGNVLAQAEAFRGLGVEIKREINPDLAEQAVSQDEEYRLRSVPEQPNDEAYQRDDEYNQQSR | not soluble |
| MSVKQEQCLIKVVSYDSNWPVQFEQEAERIKKALGSNCIEIHHIGSTSVPDLVAKPVIDMIPVVLDISKVDGANAAIRALGYEAKGEYGIPFRRYFQKGDNRLTHHAHVFELGNPEIERHLKFRDWMRMHPKDREAYARLKQELARRYSDDITAYCLGKEDFIATIDKKAGFNGLRMVKALTTREWDKVRHFRQFYFFDKAGLSDPYTWTFEHNAHVHFVLFQGSEITGYAHLQLWSHNRAALRIIVIDELKRNHQYGTRFLALCEKWLKSQGYQSLHVESSPDALKFYRNNGYIDMPFDDPDGYEGDPRDTAVGKIL | not soluble |
| MSLAVEAVIWDFGGVFTTSPFEAFRRYETERGLPKDFIRTVNATDPDANAWARFERAEIDAAAFDGLFRQEALRLGHDVRGADVLPLLYGDLRPSVMAALKTCKAQFKVGCITNNVPTGHGPGMAQSAEKALAVGEIMALFDAVIESSKAGVRKPDPRIYQMMCELLGVAPEACIYLDDLGINCKPAAALGMTAIKVSDERQLLDDLAKATGLAFEGHHHHHH | soluble |
| MGHHHHHHGGHMSLNTISSLETTDLPAAYHIEQRAHAFPWSEKTFASNQGERYLNFQLTQNGKMAAFAITQVVLDEATLFNIAVDPDYQRQGLGRALLEHLIDELEKRGVATLWLEVRASNAAAIALYESLGFNEATIRRNYYPTTDGREDAIIMALPISMEGGS | soluble |
| GMNDRKILVAYFSCSGVTKAVAEKLAAITGADLYEIKPEVPYTEADLDWNDKKSRSSVEMRDALSRPAISGTLFHPEKYEVLFVGFPVWWYIAPTIINTFLESYDFAGKIVVPFATSGGSGIGNCEKNLHKAYPDIVWKDGKLLNGQITRDLVTEWFEKIRL | soluble |
| MSLYRVFEALDELSAIVEEARGVPMTAGCVVPRGDVLELIDDIKDAIPGELDDAQDVLDARDSMLQDAKTHADSMVSSATTEAESILNHARTEADRILSDAKAQADRMVSEARQHSERMVADAREEAIRIATAAKREYEASVSRAQAECDRLIENGNISYEKAVQEGIKEQQRLVSQNEVVAAANAESTRLVDTAHAEADRLRGECDIYVDNKLAEFEEFLNGTLRSVGRGRHQLRTAAGTHDYAVREGHHHHHH | soluble |
| MKGGLLVDDEFIHGAARSLTVRKTSLFFAGDGFTVYDCKGSLVFRVDSYGGPNTRDTDEVVLMDAHGRCLLTLRRKRPSLRRRWEGYLGERSDGQKPIFGVRRSSIIGRNSVTVEVYGDYQCSEYLIEGSFGARNCTVVEAETRRKVAEIRRKVDASTNVMLGKDVFSLNVKPGFDGAFAMGLVLVLDQIYGDDLLEVGEEQVHPSAEDL | soluble |
